Measurements taken from paper PMC9482650, “Quantitative fragmentomics allow affinity mapping of interactomes” (Nature Communications, 2022).

B1: MYOZ1, Q9NP98 (peptide)
chain: IPLDGETEEL
B2: ZNF831, Q5JPB2 (peptide)
chain: DDEDRLVIEI

Biological target: FRMPD2_3, Q68DX3
Assay: holdup assay
Set-up: key: below the threshold = too weak to quantify, mostly under pKd 3.1 to 4
Conditions: plain residues with an end cap or a label only (N-terminal biotin on a linker: ado-ado)

Chain of FRMPD2_3, Q68DX3 (Q68DX3 1073-1166): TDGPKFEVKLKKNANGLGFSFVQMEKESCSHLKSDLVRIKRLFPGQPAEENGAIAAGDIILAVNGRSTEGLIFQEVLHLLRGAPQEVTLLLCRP

Row | Binder | pKd
1 | B1 | below the threshold
2 | B2 | below the threshold

Biological target: Inadl_10, Q8NI35
Sequence (Q8NI35 1673-1763): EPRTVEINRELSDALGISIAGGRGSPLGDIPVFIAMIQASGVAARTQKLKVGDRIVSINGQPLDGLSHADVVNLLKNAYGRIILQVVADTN
Assay: holdup assay
Set-up: key: below the threshold = too weak to quantify, mostly under pKd 3.1 to 4
Conditions: plain residues with an end cap or a label only (N-terminal biotin on a linker: ado-ado)

Row | Binder | pKd
3 | B1 | below the threshold
4 | B2 | below the threshold

Biological target: T1, DLG3_2, Q92796
T1 sequence (Q92796 221-321, limits assumed, looked up): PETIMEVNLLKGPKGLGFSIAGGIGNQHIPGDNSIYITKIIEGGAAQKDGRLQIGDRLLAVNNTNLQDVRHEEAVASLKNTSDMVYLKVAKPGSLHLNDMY
Assay: holdup assay
Set-up: key: below the threshold = too weak to quantify, mostly under pKd 3.1 to 4
Conditions: plain residues with an end cap or a label only (N-terminal biotin on a linker: ado-ado)

Row | Binder | pKd
5 | B1 | below the threshold
6 | B2 | 4

Biological target: T2, SNTA1, Q13424
T2 sequence (Q13424 82-180, limits assumed, looked up): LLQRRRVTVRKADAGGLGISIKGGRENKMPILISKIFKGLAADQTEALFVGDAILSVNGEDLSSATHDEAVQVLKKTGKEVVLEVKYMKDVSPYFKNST
Assay: holdup assay
Set-up: key: below the threshold = too weak to quantify, mostly under pKd 3.1 to 4
Conditions: plain residues with an end cap or a label only (N-terminal biotin on a linker: ado-ado)

Row | Binder | pKd
7 | B1 | below the threshold
8 | B2 | below the threshold

Biological target: NHERF4_4, Q86UT5
Sequence (Q86UT5 464-550): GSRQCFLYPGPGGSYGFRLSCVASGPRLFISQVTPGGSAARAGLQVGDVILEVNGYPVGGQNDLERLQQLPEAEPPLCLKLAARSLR
Assay: holdup assay
Set-up: key: below the threshold = too weak to quantify, mostly under pKd 3.1 to 4
Conditions: plain residues with an end cap or a label only (N-terminal biotin on a linker: ado-ado)

Row | Binder | pKd
9 | B1 | below the threshold
10 | B2 | 3.66

Biological target: Inadl_6, Q8NI35
Sequence (Q8NI35 1058-1167): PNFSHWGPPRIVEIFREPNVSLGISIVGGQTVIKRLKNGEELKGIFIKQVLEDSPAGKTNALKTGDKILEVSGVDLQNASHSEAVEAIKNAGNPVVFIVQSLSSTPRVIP
Assay: holdup assay
Set-up: key: below the threshold = too weak to quantify, mostly under pKd 3.1 to 4
Conditions: plain residues with an end cap or a label only (N-terminal biotin on a linker: ado-ado)

Row | Binder | pKd
11 | B1 | below the threshold
12 | B2 | below the threshold

Biological target: LNX1_2, Q8TBB1
Sequence (Q8TBB1 371-470): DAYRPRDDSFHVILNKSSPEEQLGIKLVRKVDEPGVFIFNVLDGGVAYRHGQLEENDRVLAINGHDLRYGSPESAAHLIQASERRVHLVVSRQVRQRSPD
Assay: holdup assay
Set-up: key: below the threshold = too weak to quantify, mostly under pKd 3.1 to 4
Conditions: plain residues with an end cap or a label only (N-terminal biotin on a linker: ado-ado)

Row | Binder | pKd
13 | B1 | below the threshold
14 | B2 | below the threshold

Biological target: T3, LIN7B, Q9HAP6
T3 sequence (Q9HAP6 88-185, limits assumed, looked up): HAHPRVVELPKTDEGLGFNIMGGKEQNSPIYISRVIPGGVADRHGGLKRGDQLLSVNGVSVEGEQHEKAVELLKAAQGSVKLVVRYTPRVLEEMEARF
Assay: holdup assay
Set-up: key: below the threshold = too weak to quantify, mostly under pKd 3.1 to 4
Conditions: plain residues with an end cap or a label only (N-terminal biotin on a linker: ado-ado)

Row | Binder | pKd
15 | B1 | below the threshold
16 | B2 | 3.56

Biological target: MAGI1_2, Q96QZ7
Sequence (Q96QZ7 456-580): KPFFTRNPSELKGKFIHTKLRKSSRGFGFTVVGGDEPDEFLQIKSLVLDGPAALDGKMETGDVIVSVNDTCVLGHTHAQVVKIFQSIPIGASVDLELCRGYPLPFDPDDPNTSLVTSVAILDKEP
Assay: holdup assay
Set-up: key: below the threshold = too weak to quantify, mostly under pKd 3.1 to 4
Conditions: plain residues with an end cap or a label only (N-terminal biotin on a linker: ado-ado)

Row | Binder | pKd
17 | B1 | below the threshold
18 | B2 | below the threshold

Biological target: GIPC2, Q8TF65
Sequence (Q8TF65 112-203): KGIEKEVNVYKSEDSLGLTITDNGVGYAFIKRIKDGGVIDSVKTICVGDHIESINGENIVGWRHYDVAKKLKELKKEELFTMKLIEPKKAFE
Assay: holdup assay
Set-up: key: below the threshold = too weak to quantify, mostly under pKd 3.1 to 4
Conditions: plain residues with an end cap or a label only (N-terminal biotin on a linker: ado-ado)

Row | Binder | pKd
19 | B1 | below the threshold
20 | B2 | below the threshold

Biological target: Inadl_8, Q8NI35
Sequence (Q8NI35 1425-1530): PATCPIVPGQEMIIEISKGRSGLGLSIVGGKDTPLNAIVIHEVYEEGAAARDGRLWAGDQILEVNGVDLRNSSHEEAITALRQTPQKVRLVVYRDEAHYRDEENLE
Assay: holdup assay
Set-up: key: below the threshold = too weak to quantify, mostly under pKd 3.1 to 4
Conditions: plain residues with an end cap or a label only (N-terminal biotin on a linker: ado-ado)

Row | Binder | pKd
21 | B1 | below the threshold
22 | B2 | below the threshold

Biological target: GORASP1, Q9BQQ3
Sequence (Q9BQQ3 1-208): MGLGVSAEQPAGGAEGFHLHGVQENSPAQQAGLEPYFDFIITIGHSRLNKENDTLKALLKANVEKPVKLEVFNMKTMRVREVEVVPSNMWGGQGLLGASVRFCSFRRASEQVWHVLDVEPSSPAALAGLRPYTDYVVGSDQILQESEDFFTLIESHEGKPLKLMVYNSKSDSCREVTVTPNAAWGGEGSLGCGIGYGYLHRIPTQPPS
Assay: holdup assay
Set-up: key: below the threshold = too weak to quantify, mostly under pKd 3.1 to 4
Conditions: plain residues with an end cap or a label only (N-terminal biotin on a linker: ado-ado)

Row | Binder | pKd
23 | B1 | below the threshold
24 | B2 | 4.12

Biological target: PARD3_3, Q8TEW0
Sequence (Q8TEW0 582-685): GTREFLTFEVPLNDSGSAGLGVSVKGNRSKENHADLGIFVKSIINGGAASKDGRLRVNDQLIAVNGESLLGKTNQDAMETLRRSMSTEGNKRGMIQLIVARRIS
Assay: holdup assay
Set-up: key: below the threshold = too weak to quantify, mostly under pKd 3.1 to 4
Conditions: plain residues with an end cap or a label only (N-terminal biotin on a linker: ado-ado)

Row | Binder | pKd
25 | B1 | 3.97
26 | B2 | 4.98

Biological target: MAGI2_3, Q86UL8
Sequence (Q86UL8 600-682): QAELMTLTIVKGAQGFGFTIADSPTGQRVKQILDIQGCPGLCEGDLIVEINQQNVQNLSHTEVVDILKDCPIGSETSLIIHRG
Assay: holdup assay
Set-up: key: below the threshold = too weak to quantify, mostly under pKd 3.1 to 4
Conditions: plain residues with an end cap or a label only (N-terminal biotin on a linker: ado-ado)

Row | Binder | pKd
27 | B1 | below the threshold
28 | B2 | below the threshold

Biological target: T4, RHPN1, Q8TCX5
T4 sequence (Q8TCX5 508-602, limits assumed, looked up): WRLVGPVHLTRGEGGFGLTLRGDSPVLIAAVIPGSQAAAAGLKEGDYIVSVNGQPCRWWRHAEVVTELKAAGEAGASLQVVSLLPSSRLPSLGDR
Assay: holdup assay
Set-up: key: below the threshold = too weak to quantify, mostly under pKd 3.1 to 4
Conditions: plain residues with an end cap or a label only (N-terminal biotin on a linker: ado-ado)

Row | Binder | pKd
29 | B1 | below the threshold
30 | B2 | 3.53

Biological target: LNX1_3, Q8TBB1
Sequence (Q8TBB1 500-596): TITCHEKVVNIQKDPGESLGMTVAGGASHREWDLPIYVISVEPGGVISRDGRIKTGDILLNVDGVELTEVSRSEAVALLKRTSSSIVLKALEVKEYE
Assay: holdup assay
Set-up: key: below the threshold = too weak to quantify, mostly under pKd 3.1 to 4
Conditions: plain residues with an end cap or a label only (N-terminal biotin on a linker: ado-ado)

Row | Binder | pKd
31 | B1 | below the threshold
32 | B2 | below the threshold

Biological target: Inadl_1, Q8NI35
Sequence (Q8NI35 113-229): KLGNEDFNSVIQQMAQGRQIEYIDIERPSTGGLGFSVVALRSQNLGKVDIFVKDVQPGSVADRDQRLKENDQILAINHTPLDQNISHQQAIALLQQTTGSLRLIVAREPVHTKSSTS
Assay: holdup assay
Set-up: key: below the threshold = too weak to quantify, mostly under pKd 3.1 to 4
Conditions: plain residues with an end cap or a label only (N-terminal biotin on a linker: ado-ado)

Row | Binder | pKd
33 | B1 | below the threshold
34 | B2 | 3.64

Biological target: T5, HTRA3, P83110
T5 sequence (P83110 354-453, limits assumed, looked up): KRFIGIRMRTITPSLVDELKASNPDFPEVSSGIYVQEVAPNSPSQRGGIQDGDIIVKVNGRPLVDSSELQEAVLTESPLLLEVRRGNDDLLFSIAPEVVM
Assay: holdup assay
Set-up: key: below the threshold = too weak to quantify, mostly under pKd 3.1 to 4
Conditions: plain residues with an end cap or a label only (N-terminal biotin on a linker: ado-ado)

Row | Binder | pKd
35 | B1 | below the threshold
36 | B2 | 4

Biological target: T6, NHERF3_3, Q5T2W1
T6 sequence (Q5T2W1 238-333, limits assumed, looked up): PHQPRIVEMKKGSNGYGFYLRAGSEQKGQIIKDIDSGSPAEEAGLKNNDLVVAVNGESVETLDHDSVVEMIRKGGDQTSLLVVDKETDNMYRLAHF
Assay: holdup assay
Set-up: key: below the threshold = too weak to quantify, mostly under pKd 3.1 to 4
Conditions: plain residues with an end cap or a label only (N-terminal biotin on a linker: ado-ado)

Row | Binder | pKd
37 | B1 | below the threshold
38 | B2 | below the threshold

Biological target: Inadl_4, Q8NI35
Sequence (Q8NI35 547-651): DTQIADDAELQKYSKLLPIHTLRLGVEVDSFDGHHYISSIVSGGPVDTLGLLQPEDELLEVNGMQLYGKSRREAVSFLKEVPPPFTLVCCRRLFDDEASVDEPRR
Assay: holdup assay
Set-up: key: below the threshold = too weak to quantify, mostly under pKd 3.1 to 4
Conditions: plain residues with an end cap or a label only (N-terminal biotin on a linker: ado-ado)

Row | Binder | pKd
39 | B1 | below the threshold
40 | B2 | below the threshold

Biological target: DLG4_2, P78352
Sequence (P78352 155-259): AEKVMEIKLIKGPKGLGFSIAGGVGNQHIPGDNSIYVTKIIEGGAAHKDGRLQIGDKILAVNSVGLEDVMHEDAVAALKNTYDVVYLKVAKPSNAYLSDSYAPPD
Assay: holdup assay
Set-up: key: below the threshold = too weak to quantify, mostly under pKd 3.1 to 4
Conditions: plain residues with an end cap or a label only (N-terminal biotin on a linker: ado-ado)

Row | Binder | pKd
41 | B1 | below the threshold
42 | B2 | below the threshold

Biological target: MAGI3_2, Q5TCQ9
Sequence (Q5TCQ9 398-503): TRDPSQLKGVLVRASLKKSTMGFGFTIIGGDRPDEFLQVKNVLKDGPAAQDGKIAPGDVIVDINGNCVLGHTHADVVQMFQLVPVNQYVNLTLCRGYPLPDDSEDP
Assay: holdup assay
Set-up: key: below the threshold = too weak to quantify, mostly under pKd 3.1 to 4
Conditions: plain residues with an end cap or a label only (N-terminal biotin on a linker: ado-ado)

Row | Binder | pKd
43 | B1 | below the threshold
44 | B2 | below the threshold

Biological target: MAST2, Q6P0Q8
Sequence (Q6P0Q8 1099-1202): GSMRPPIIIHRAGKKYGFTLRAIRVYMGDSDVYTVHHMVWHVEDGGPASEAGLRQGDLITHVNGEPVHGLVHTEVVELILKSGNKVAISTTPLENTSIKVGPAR
Assay: holdup assay
Set-up: key: below the threshold = too weak to quantify, mostly under pKd 3.1 to 4
Conditions: plain residues with an end cap or a label only (N-terminal biotin on a linker: ado-ado)

Row | Binder | pKd
45 | B1 | 4.41
46 | B2 | 4.08

Biological target: T7, APBA1_1, Q02410
T7 sequence (Q02410 651-752, limits assumed, looked up): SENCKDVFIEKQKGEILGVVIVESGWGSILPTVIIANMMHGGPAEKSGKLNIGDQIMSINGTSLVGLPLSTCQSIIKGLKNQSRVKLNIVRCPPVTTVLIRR
Assay: holdup assay
Set-up: key: below the threshold = too weak to quantify, mostly under pKd 3.1 to 4
Conditions: plain residues with an end cap or a label only (N-terminal biotin on a linker: ado-ado)

Row | Binder | pKd
47 | B1 | below the threshold
48 | B2 | below the threshold

Biological target: T8, ARHGEF11, O15085
T8 sequence (O15085 42-136, limits assumed, looked up): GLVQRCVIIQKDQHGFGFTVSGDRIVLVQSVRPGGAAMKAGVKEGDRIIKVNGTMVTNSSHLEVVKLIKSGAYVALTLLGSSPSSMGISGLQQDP
Assay: holdup assay
Set-up: key: below the threshold = too weak to quantify, mostly under pKd 3.1 to 4
Conditions: plain residues with an end cap or a label only (N-terminal biotin on a linker: ado-ado)

Row | Binder | pKd
49 | B1 | 3.82
50 | B2 | 4.07

Biological target: T9, FRMPD1, Q5SYB0
T9 sequence (Q5SYB0 52-145, limits assumed, looked up): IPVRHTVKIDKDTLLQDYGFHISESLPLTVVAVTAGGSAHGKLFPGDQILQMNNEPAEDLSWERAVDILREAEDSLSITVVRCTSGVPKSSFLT
Assay: holdup assay
Set-up: key: below the threshold = too weak to quantify, mostly under pKd 3.1 to 4
Conditions: plain residues with an end cap or a label only (N-terminal biotin on a linker: ado-ado)

Row | Binder | pKd
51 | B1 | below the threshold
52 | B2 | below the threshold

Biological target: GOPC, Q9HD26
Assay: holdup assay
Set-up: key: below the threshold = too weak to quantify, mostly under pKd 3.1 to 4
Conditions: plain residues with an end cap or a label only (N-terminal biotin on a linker: ado-ado)

Row | Binder | pKd
53 | B1 | below the threshold
54 | B2 | below the threshold

Biological target: FRMPD2_1, Q68DX3
Sequence (Q68DX3 770-861): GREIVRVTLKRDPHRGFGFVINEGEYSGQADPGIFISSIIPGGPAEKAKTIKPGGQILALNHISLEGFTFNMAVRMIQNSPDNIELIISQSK
Assay: holdup assay
Set-up: key: below the threshold = too weak to quantify, mostly under pKd 3.1 to 4
Conditions: plain residues with an end cap or a label only (N-terminal biotin on a linker: ado-ado)

Row | Binder | pKd
55 | B1 | below the threshold
56 | B2 | below the threshold
